Results published in patent US20240132563A1.

Legend:
Test in all cases: cell-based or functional assay
[1] = target: IL-18 polypeptide C161 (K8R, V11I, C38A, C76A, Q103E, C127A) (human) (UniProt Q14116)
[2] = target: IL-18 polypeptide C143 (V11I, C38A, K53A, C76A, C127A) (human) (UniProt Q14116)
[3] = target: IL-18 polypeptide C146, SEQ ID NO: 68 (V11I, C38A, M51G, K53A, C76A, C127A) (human) (UniProt Q14116)
[4] = target: IL-18 polypeptide of SEQ ID NO: 6 (E6K, V11I, C38A, K53A, T63A, C68A, C76A, D98C, C127A) (human) (UniProt Q14116)
[5] = target: IL-18 polypeptide of SEQ ID NO: 62 (E6K, C38A, K53A, C127A) (human) (UniProt Q14116)
[6] = target: IL-18 polypeptide C148 (F2A, V11I, C38A, K53A, C76A, C127A) (human) (UniProt Q14116)
[7] = target: IL-18 polypeptide C154 (V11I, E31A, D37A, C38A, K53A, C76A, C127A) (human) (UniProt Q14116)
[8] = target: IL-18 polypeptide of SEQ ID NO: 43 (E06K, K53A, S55A, Y01G) (human) (UniProt Q14116)
[9] = target: IL-18 polypeptide of SEQ ID NO: 53 (K53A, T63A) (human) (UniProt Q14116)
[10] = target: IL-18 polypeptide C152 (V11I, S36A, C38A, K53A, C76A, C127A) (human) (UniProt Q14116)
[11] = target: IL-18 polypeptide of SEQ ID NO: 30 (E6K, V11I, C38A, K53A, T63A, C76A, C127A) (human) (UniProt Q14116)
[12] = target: IL-18 polypeptide of SEQ ID NO: 9 (E6K, C38A, K53A, C68A, D98C) (human) (UniProt Q14116)
[13] = target: IL-18 polypeptide C157 (V11I, C38A, K53A, C76A, C127A, D132A) (human) (UniProt Q14116)
[14] = target: IL-18 polypeptide of SEQ ID NO: 1 (native sequence) (human) (UniProt Q14116)
[15] = target: IL-18 polypeptide of SEQ ID NO: 51 (T63A) (human) (UniProt Q14116)
[16] = target: IL-18 polypeptide C168 (V11I, C38A, C76A, S105K, C127A) (human) (UniProt Q14116)
[17] = target: IL-18 polypeptide of SEQ ID NO: 54 (E06K, K53A, C38S, C68S, C76S, C127S, K70C) (human) (UniProt Q14116)
[18] = target: IL-18 polypeptide of SEQ ID NO: 50 (E06K, K53A, T63A) (human) (UniProt Q14116)
[19] = target: IL-18 polypeptide C163 (V11I, C38A, C76A, Q103K, C127A) (human) (UniProt Q14116)
[20] = target: IL-18 polypeptide C147 (V11I, C38A, K53A, D54A, C76A, C127A) (human) (UniProt Q14116)
[21] = target: IL-18 polypeptide C149 (V11I, E31A, C38A, K53A, C76A, C127A) (human) (UniProt Q14116)
[22] = target: IL-18 polypeptide of SEQ ID NO: 52 (E06K, T63A) (human) (UniProt Q14116)
[23] = target: IL-18 polypeptide of SEQ ID NO: 60 (E6K, C38Q, K53A) (human) (UniProt Q14116)
[24] = target: IL-18 polypeptide of SEQ ID NO: 59 (E6K, C38A, K53A) (human) (UniProt Q14116)
[25] = target: IL-18 polypeptide C165 (V11I, C38A, S55R, C76A, C127A) (human) (UniProt Q14116)
[26] = target: IL-18 polypeptide C167 (V11I, C38A, C76A, S105I, C127A) (human) (UniProt Q14116)
[27] = target: IL-18 polypeptide C166 (V11I, C38A, S55T, C76A, C127A) (human) (UniProt Q14116)
[28] = target: IL-18 polypeptide of SEQ ID NO: 39 (E06K, K53A) (human) (UniProt Q14116)
IL-18 polypeptide of SEQ ID NO: 39 (E06K, K53A) (human), sequence (Q14116 37-193 E42K/K89A): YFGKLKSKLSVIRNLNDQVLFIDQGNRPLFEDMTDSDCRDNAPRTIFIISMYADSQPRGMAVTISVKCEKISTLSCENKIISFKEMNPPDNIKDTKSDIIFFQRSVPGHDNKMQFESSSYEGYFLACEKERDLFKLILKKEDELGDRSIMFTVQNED

IL-18 polypeptide of SEQ ID NO: 50 (E06K, K53A, T63A) (human), sequence (Q14116 37-193 E42K/K89A/T99A): as the sequence (Q14116 37-193 E42K/K89A) above, with T63A counted along it
IL-18 polypeptide of SEQ ID NO: 6 (E6K, V11I, C38A, K53A, T63A, C68A, C76A, D98C, C127A) (human), sequence (Q14116 other isoform, or with tags, fused parts or gaps with the stated changes): as the sequence (Q14116 37-193 E42K/K89A) above, with V11I, C38A, T63A, C68A, C76A, D98C, C127A counted along it
IL-18 polypeptide C167 (V11I, C38A, C76A, S105I, C127A) (human), sequence (Q14116 37-193 V47I/C74A/C112A/S141I/C163A): as the sequence (Q14116 37-193 E42K/K89A) above, with K6E, V11I, C38A, A53K, C76A, S105I, C127A counted along it
IL-18 polypeptide C152 (V11I, S36A, C38A, K53A, C76A, C127A) (human), sequence (Q14116 37-193 V47I/S72A/C74A/K89A/C112A/C163A): as the sequence (Q14116 37-193 E42K/K89A) above, with K6E, V11I, S36A, C38A, C76A, C127A counted along it
IL-18 polypeptide C154 (V11I, E31A, D37A, C38A, K53A, C76A, C127A) (human), sequence (Q14116 37-193 V47I/E67A/D73A/C74A/K89A/C112A/C163A): as the sequence (Q14116 37-193 E42K/K89A) above, with K6E, V11I, E31A, D37A, C38A, C76A, C127A counted along it
IL-18 polypeptide of SEQ ID NO: 30 (E6K, V11I, C38A, K53A, T63A, C76A, C127A) (human), sequence (Q14116 other isoform, or with tags, fused parts or gaps with the stated changes): as the sequence (Q14116 37-193 E42K/K89A) above, with V11I, C38A, T63A, C76A, C127A counted along it
IL-18 polypeptide C166 (V11I, C38A, S55T, C76A, C127A) (human), sequence (Q14116 37-193 V47I/C74A/S91T/C112A/C163A): as the sequence (Q14116 37-193 E42K/K89A) above, with K6E, V11I, C38A, A53K, S55T, C76A, C127A counted along it
IL-18 polypeptide of SEQ ID NO: 1 (native sequence) (human), sequence (Q14116 37-193): as the sequence (Q14116 37-193 E42K/K89A) above, with K6E, A53K counted along it
IL-18 polypeptide C149 (V11I, E31A, C38A, K53A, C76A, C127A) (human), sequence (Q14116 37-193 V47I/E67A/C74A/K89A/C112A/C163A): as the sequence (Q14116 37-193 E42K/K89A) above, with K6E, V11I, E31A, C38A, C76A, C127A counted along it
IL-18 polypeptide of SEQ ID NO: 59 (E6K, C38A, K53A) (human), sequence (Q14116 other isoform, or with tags, fused parts or gaps C38A K53A C38A K53A): as the sequence (Q14116 37-193 E42K/K89A) above, with C38A counted along it
IL-18 polypeptide C163 (V11I, C38A, C76A, Q103K, C127A) (human), sequence (Q14116 37-193 V47I/C74A/C112A/Q139K/C163A): as the sequence (Q14116 37-193 E42K/K89A) above, with K6E, V11I, C38A, A53K, C76A, Q103K, C127A counted along it
IL-18 polypeptide C161 (K8R, V11I, C38A, C76A, Q103E, C127A) (human), sequence (Q14116 other isoform, or with tags, fused parts or gaps V11I C38A C76A Q103E C127A V11I C38A C76A Q103E C127A): as the sequence (Q14116 37-193 E42K/K89A) above, with K6E, K8R, V11I, C38A, A53K, C76A, Q103E, C127A counted along it
IL-18 polypeptide of SEQ ID NO: 54 (E06K, K53A, C38S, C68S, C76S, C127S, K70C) (human), sequence (Q14116 37-193 E42K/C74S/K89A/C104S/K106C/C112S/C163S): as the sequence (Q14116 37-193 E42K/K89A) above, with C38S, C68S, K70C, C76S, C127S counted along it
IL-18 polypeptide of SEQ ID NO: 43 (E06K, K53A, S55A, Y01G) (human), sequence (Q14116 37-193 Y37G/E42K/K89A/S91A): as the sequence (Q14116 37-193 E42K/K89A) above, with Y1G, S55A counted along it
IL-18 polypeptide of SEQ ID NO: 53 (K53A, T63A) (human), sequence (Q14116 37-193 K89A/T99A): as the sequence (Q14116 37-193 E42K/K89A) above, with K6E, T63A counted along it
IL-18 polypeptide C147 (V11I, C38A, K53A, D54A, C76A, C127A) (human), sequence (Q14116 37-193 V47I/C74A/K89A/D90A/C112A/C163A): as the sequence (Q14116 37-193 E42K/K89A) above, with K6E, V11I, C38A, D54A, C76A, C127A counted along it
IL-18 polypeptide of SEQ ID NO: 62 (E6K, C38A, K53A, C127A) (human), sequence (Q14116 other isoform, or with tags, fused parts or gaps C38A K53A C127A C38A K53A C127A): as the sequence (Q14116 37-193 E42K/K89A) above, with C38A, C127A counted along it
IL-18 polypeptide of SEQ ID NO: 60 (E6K, C38Q, K53A) (human), sequence (Q14116 other isoform, or with tags, fused parts or gaps C38Q K53A C38Q K53A): as the sequence (Q14116 37-193 E42K/K89A) above, with C38Q counted along it
IL-18 polypeptide C143 (V11I, C38A, K53A, C76A, C127A) (human), sequence (Q14116 37-193 V47I/C74A/K89A/C112A/C163A): as the sequence (Q14116 37-193 E42K/K89A) above, with K6E, V11I, C38A, C76A, C127A counted along it
IL-18 polypeptide C168 (V11I, C38A, C76A, S105K, C127A) (human), sequence (Q14116 37-193 V47I/C74A/C112A/S141K/C163A): as the sequence (Q14116 37-193 E42K/K89A) above, with K6E, V11I, C38A, A53K, C76A, S105K, C127A counted along it
IL-18 polypeptide of SEQ ID NO: 9 (E6K, C38A, K53A, C68A, D98C) (human), sequence (Q14116 other isoform, or with tags, fused parts or gaps C38A K53A C68A D98C C38A K53A C68A D98C): as the sequence (Q14116 37-193 E42K/K89A) above, with C38A, C68A, D98C counted along it
IL-18 polypeptide C157 (V11I, C38A, K53A, C76A, C127A, D132A) (human), sequence (Q14116 37-193 V47I/C74A/K89A/C112A/C163A/D168A): as the sequence (Q14116 37-193 E42K/K89A) above, with K6E, V11I, C38A, C76A, C127A, D132A counted along it
IL-18 polypeptide C146, SEQ ID NO: 68 (V11I, C38A, M51G, K53A, C76A, C127A) (human), sequence (Q14116 37-193 V47I/C74A/M87G/K89A/C112A/C163A): as the sequence (Q14116 37-193 E42K/K89A) above, with K6E, V11I, C38A, M51G, C76A, C127A counted along it
IL-18 polypeptide C148 (F2A, V11I, C38A, K53A, C76A, C127A) (human), sequence (Q14116 other isoform, or with tags, fused parts or gaps V11I C38A K53A C76A C127A V11I C38A K53A C76A C127A): as the sequence (Q14116 37-193 E42K/K89A) above, with F2A, K6E, V11I, C38A, C76A, C127A counted along it
IL-18 polypeptide C165 (V11I, C38A, S55R, C76A, C127A) (human), sequence (Q14116 37-193 V47I/C74A/S91R/C112A/C163A): as the sequence (Q14116 37-193 E42K/K89A) above, with K6E, V11I, C38A, A53K, S55R, C76A, C127A counted along it
IL-18 polypeptide of SEQ ID NO: 52 (E06K, T63A) (human), sequence (Q14116 37-193 E42K/T99A): as the sequence (Q14116 37-193 E42K/K89A) above, with A53K, T63A counted along it
IL-18 polypeptide of SEQ ID NO: 51 (T63A) (human), sequence (Q14116 37-193 T99A): as the sequence (Q14116 37-193 E42K/K89A) above, with K6E, A53K, T63A counted along it

Substance: Fc-fused human IL-18 binding protein isoform a (IL-18BPa) (from UniProt O95998 31-194) (Fc fusion)
- IC50 of IL-18BPa inhibition of IFNγ induction in NK-92 cells [1]: 7.29 nM
- IC50 of IL-18BPa inhibition of IFNγ induction in NK-92 cells [2]: 7.52 nM
- IC50 of IL-18BPa inhibition of IFNγ induction in NK-92 cells [3]: 47.6 nM
- IC50 of IL-18BPa inhibition of IFNγ induction in NK-92 cells [4]: 5.85 nM
- IC50 of IL-18BPa inhibition of IFNγ induction in NK-92 cells [5]: 780 nM
- IC50 of IL-18BPa inhibition of IFNγ induction in NK-92 cells [6]: 1.17 nM
- IC50 of IL-18BPa inhibition of IFNγ induction in NK-92 cells [7]: 3.23 nM
- IC50 of IL-18BPa inhibition of IFNγ induction in NK-92 cells [8]: 27.8 nM
- IC50 of IL-18BPa inhibition of IFNγ induction in NK-92 cells [9]: 18.2 nM
- IC50 of IL-18BPa inhibition of IFNγ induction in NK-92 cells [10]: 2.22 nM
- IC50 of IL-18BPa inhibition of IFNγ induction in NK-92 cells [11]: 284 nM
- IC50 of IL-18BPa inhibition of IFNγ induction in NK-92 cells [12]: 961 nM
- IC50 of IL-18BPa inhibition of IFNγ induction in NK-92 cells [13]: 3.98 nM
- IC50 of IL-18BPa inhibition of IFNγ induction in NK-92 cells [14]: 1.47 nM
- IC50 of IL-18BPa inhibition of IFNγ induction in NK-92 cells [15]: 0.239 nM
- IC50 of IL-18BPa inhibition of IFNγ induction in NK-92 cells [16]: 5.85 nM
- IC50 of IL-18BPa inhibition of IFNγ induction in NK-92 cells [17]: 23.5 nM
- IC50 of IL-18BPa inhibition of IFNγ induction in NK-92 cells [18]: > 1000 nM
- IC50 of IL-18BPa inhibition of IFNγ induction in NK-92 cells [19]: 0.456 nM
- IC50 of IL-18BPa inhibition of IFNγ induction in NK-92 cells [20]: 5.05 nM
- IC50 of IL-18BPa inhibition of IFNγ induction in NK-92 cells [21]: 21.3 nM
- IC50 of IL-18BPa inhibition of IFNγ induction in NK-92 cells [22]: 47.1 nM
- IC50 of IL-18BPa inhibition of IFNγ induction in NK-92 cells [23]: 654 nM
- IC50 of IL-18BPa inhibition of IFNγ induction in NK-92 cells [24]: 146 nM
- IC50 of IL-18BPa inhibition of IFNγ induction in NK-92 cells [25]: 0.44 nM
- IC50 of IL-18BPa inhibition of IFNγ induction in NK-92 cells [26]: 0.176 nM
- IC50 of IL-18BPa inhibition of IFNγ induction in NK-92 cells [27]: 0.809 nM
- IC50 of IL-18BPa inhibition of IFNγ induction in NK-92 cells [28]: > 703 nM
